In assay [1] the target is soluble CD44 variants containing exon v6 in normal human serum (human) (UniProt P16070). The assay is described as follows: sandwich ELISA, coating antibody, serum 1 diluted 1:80, detection BU-52-peroxidase. In general terms: In an ELISA, binding on a coated surface is turned into a signal by an enzyme label.
The target is the same in assay [2]. The assay is described as follows: sandwich ELISA, coating antibody, serum 2 diluted 1:5, detection BU-52-peroxidase.
Assay [3] has the same target. Briefly: sandwich ELISA, coating antibody, serum 2 diluted 1:10, detection BU-52-peroxidase.
For assay [4] the target is unchanged. Briefly: sandwich ELISA, coating antibody, serum 1 diluted 1:40, detection BU-52-peroxidase.
The target is the same in assay [5]. The assay is described as follows: sandwich ELISA, coating antibody, serum 2 diluted 1:40, detection BU-52-peroxidase.
The target is the same in assay [6]. The assay is described as follows: sandwich ELISA, coating antibody, serum 2 diluted 1:160, detection BU-52-peroxidase.
Assay [7] has the same target. Briefly: sandwich ELISA, coating antibody, serum 2 diluted 1:20, detection BU-52-peroxidase.
The target is the same in assay [8]. The assay is described as follows: sandwich ELISA, coating antibody, serum 2 diluted 1:640, detection BU-52-peroxidase.
Assay [9] shares this target. Briefly: sandwich ELISA, coating antibody, serum 1 diluted 1:320, detection BU-52-peroxidase.
The target is the same in assay [10]. The assay is described as follows: sandwich ELISA, coating antibody, serum 2 diluted 1:80, detection BU-52-peroxidase.
For assay [11] the target is unchanged. Briefly: sandwich ELISA, coating antibody, serum 1 diluted 1:160, detection BU-52-peroxidase.
Assay [12] shares this target. The assay is described as follows: sandwich ELISA, coating antibody, serum 1 diluted 1:10, detection BU-52-peroxidase.
Assay [13] has the same target. Briefly: sandwich ELISA, coating antibody, serum 1 diluted 1:5, detection BU-52-peroxidase.
For assay [14] the target is unchanged. The assay is described as follows: sandwich ELISA, coating antibody, serum 1 diluted 1:640, detection BU-52-peroxidase.
Assay [15] has the same target. The assay is described as follows: sandwich ELISA, coating antibody, serum 1 diluted 1:20, detection BU-52-peroxidase.
For assay [16] the target is unchanged. The assay is described as follows: sandwich ELISA, coating antibody, serum 2 diluted 1:320, detection BU-52-peroxidase.
In assay [17] the target is CD44 (variant isoforms not specified) on CaCo cells (human) (UniProt P16070). Briefly: 3H-labelled antibody on ethanol-fixed CaCo cells.
The target of assay [18] is CD44 (variant isoforms not specified) on HCT-116 cells (human) (UniProt P16070). The assay is described as follows: 3H-labelled antibody on ethanol-fixed HCT-116 cells.
For assay [19], the target named is CD44 (variant isoforms not specified) on A431 cells (human) (UniProt P16070). The assay is described as follows: 3H-labelled antibody on ethanol-fixed A431 cells.
Assay [20] has as its target CD44 (variant isoforms not specified) on HT-29 cells (human) (UniProt P16070). Briefly: 3H-labelled antibody on ethanol-fixed HT-29 cells.
Assay [21] deals with CD44 (variant isoforms not specified) on CX-1 cells (human) (UniProt P16070). The assay is described as follows: 3H-labelled antibody on ethanol-fixed CX-1 cells.
Assay [22] deals with human variant CD44 (exons v3-v10) on the cell surface of CHO-CD44var cells (human) (UniProt P16070). The assay is described as follows: 3H-labelled antibody on ethanol-fixed CHO CD44var cells.
Assay [23] addresses CD44 (variant isoforms not specified) on COLO 205 cells (human) (UniProt P16070). Briefly: 3H-labelled antibody on ethanol-fixed COLO 205 cells.
For assay [24], the target named is soluble CD44 variants containing exon v6 in normal human serum (human) (UniProt P16070). The assay is described as follows: sandwich ELISA, serum of donor 6, calibrated on recombinant soluble CD44v3-v10; reference VFF-7.
For assay [25] the target is unchanged. Briefly: sandwich ELISA, serum of donor 5, calibrated on recombinant soluble CD44v3-v10; reference VFF-7.
The target is the same in assay [26]. Briefly: sandwich ELISA, serum of donor 4, calibrated on recombinant soluble CD44v3-v10; reference VFF-7.
For assay [27] the target is unchanged. The assay is described as follows: sandwich ELISA, serum of donor 1, calibrated on recombinant soluble CD44v3-v10; reference VFF-7.
Assay [28] shares this target. Briefly: sandwich ELISA, serum of donor 2, calibrated on recombinant soluble CD44v3-v10; reference VFF-7.
Assay [29] has the same target. The assay is described as follows: sandwich ELISA, sera of 6 healthy donors, calibrated on recombinant soluble CD44v3-v10; reference VFF-7.
The target is the same in assay [30]. Briefly: sandwich ELISA, serum of donor 3, calibrated on recombinant soluble CD44v3-v10; reference VFF-7.

For antibody VFF-4, the absorption (sandwich ELISA signal) (absorption at 450 nm) in assay [1] stood at 0.109; in assay [2], 1.69; in assay [3], 1.76; in assay [4] it was 0.207; in [5], 1.21; in [6], 0.336. Also, the absorption (sandwich ELISA signal) (absorption at 450 nm) in assay [7] stood at 1.56; in assay [8], 0.054; in [9] it was 0.026; in assay [10] it was 0.699; in assay [11] it was 0.05; in assay [12] it was 0.378. Also, the absorption (sandwich ELISA signal) (absorption at 450 nm) in assay [13] was 0.406; in [14], 0.012; in [15], 0.296; in assay [16], 0.138.

Turning to antibody VFF-7, the absorption (sandwich ELISA signal) (absorption at 450 nm) was 0.062 in assay [1]; 1.28 in assay [2]; 1.19 in assay [3]; 0.072 in [4]; 0.468 in [5]; 0.061 in [6]. The absorption (sandwich ELISA signal) (absorption at 450 nm) in assay [7] came to 0.857; in assay [8] it was 0.018; in assay [9], 0.008; in [10] it was 0.208; in assay [11], 0.03; in [12] it was 0.289. The absorption (sandwich ELISA signal) (absorption at 450 nm) worked out at 0.417 in assay [13], 0.007 in assay [14], 0.179 in assay [15] and 0.014 in assay [16]. The specific binding (bound antibody per 400 000 cells) in assay [17] is 0.03 fmol; in assay [18] it was 1.44 fmol; in assay [19] it was 8.19 fmol; in [20], 0 fmol; in assay [21], 0.19 fmol; in [22], 33.5 fmol. In [23], this substance came in with a specific binding (bound antibody per 400 000 cells) of 0 fmol.

With antibody VFF-18, the absorption (sandwich ELISA signal) (absorption at 450 nm) in assay [1] was 1.08; in [2], 3.29; in [3] it was 3.32; in assay [4], 1.78; in assay [5], 3.05; in assay [6], 1.67. In addition, the absorption (sandwich ELISA signal) (absorption at 450 nm) in assay [7] worked out at 3.16; in assay [8] it was 0.546; in assay [9], 0.318; in assay [10], 2.54; in assay [11], 0.594; in assay [12], 3.06. The absorption (sandwich ELISA signal) (absorption at 450 nm) in assay [13] came to 3.14; in [14], 0.159; in assay [15], 2.63; in [16] it was 0.988. Moreover, the specific binding (bound antibody per 400 000 cells) in assay [17] was determined as 12.6 fmol; in assay [18] it was 20.2 fmol; in assay [19], 38.7 fmol; in [20] it was 26.1 fmol; in [21] it was 9.48 fmol; in [22] it was 46.5 fmol. The specific binding (bound antibody per 400 000 cells) in assay [23] was determined as 2.88 fmol. For the same substance, the VFF-18/VFF-7 (ratio of the serum levels read by the two ELISAs) in assay [24] came out at 3.48; in assay [25], 3.67; in [26], 3.31; in [27], 4.17; in assay [28] it was 2.66; in assay [30], 3.91. In [29], the VFF-18/VFF-7 (mean value of the ratio over 6 donors) is 3.53.

The record behind these values is patent publication US5916561.
